For three substances, Kd and koff results are on record in article PMC3443260.

A word on the Kd: it is the free concentration of one partner at which half of the binding sites on the other are occupied at equilibrium, for simple one-to-one binding. The koff is the rate constant with which the complex falls apart.

In assay [1] the target is CI-MPR C-terminal DXXLL peptide (Homo sapiens) (UniProt P11717). Put plainly: ITC. To be noted: cited from earlier work.
Assay [2] deals with Flag-tagged mouse GGA2 (mouse) (UniProt Q6P5E6). Nature of the assay: BLI.
Assay [3] shares this target. Nature of the assay: BLI. The source holds these as a separate data set.

Like-named read-outs stand apart in the source and are kept apart here.

Sequence of Flag-tagged mouse GGA2 (mouse) (Q6P5E6 whole entry): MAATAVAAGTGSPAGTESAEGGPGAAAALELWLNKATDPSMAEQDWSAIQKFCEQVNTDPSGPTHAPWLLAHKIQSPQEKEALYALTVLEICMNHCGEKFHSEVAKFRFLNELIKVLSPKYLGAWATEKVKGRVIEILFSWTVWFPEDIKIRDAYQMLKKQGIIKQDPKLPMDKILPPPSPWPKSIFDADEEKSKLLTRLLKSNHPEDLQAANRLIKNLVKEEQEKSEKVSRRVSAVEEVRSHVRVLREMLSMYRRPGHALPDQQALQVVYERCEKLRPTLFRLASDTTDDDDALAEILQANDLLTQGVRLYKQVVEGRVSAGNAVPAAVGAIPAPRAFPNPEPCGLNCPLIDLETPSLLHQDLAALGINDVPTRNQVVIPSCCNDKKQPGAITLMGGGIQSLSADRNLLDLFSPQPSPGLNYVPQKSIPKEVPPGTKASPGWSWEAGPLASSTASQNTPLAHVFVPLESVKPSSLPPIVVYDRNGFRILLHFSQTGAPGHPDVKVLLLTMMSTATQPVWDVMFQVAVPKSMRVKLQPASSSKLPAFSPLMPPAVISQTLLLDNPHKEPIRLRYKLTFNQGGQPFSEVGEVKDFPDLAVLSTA
Sequence of GGA2 VHS (Q9UJY4 30-166): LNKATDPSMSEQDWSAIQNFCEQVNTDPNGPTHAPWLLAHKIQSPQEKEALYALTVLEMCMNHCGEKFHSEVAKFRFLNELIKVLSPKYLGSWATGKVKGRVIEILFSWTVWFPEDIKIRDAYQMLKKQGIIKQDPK

Turning to GGA2 VHS (from UniProt Q9UJY4), the dissociation constant Kd in assay [1] is 7100 nM.

Take “MBP-LRP9 30mer containing both DXXLL motifs (peptide)”: in assay [2], the dissociation constant (Kd) stood at 150 nM and the koff was determined as 0.0052 s⁻¹.

As for “MBP-LRP9 30mer with the C-terminal DXXLL motif mutated to AXXAA (peptide)”, in assay [3], the Kd turned out to be 380 nM. Also, in assay [2], the Kd came out at 280 nM and the koff is 0.0059 s⁻¹.
